Paper PMC7036143 (Molecular cell, 2020)
Where “and” joins values, the source holds several entries; their conditions need not be identical. Equal entries are not always repeated. Where two headings read alike, the source gives them in different places.

B1: P. aeruginosa ATCC27853 HORMA3 (purified, in vitro reconstitution) (natural protein)
chain: MTTVVSRTFRSSPHRDALQTWDAIVELLTQGKDGTARSELRAVTGVAASLIADQAPKSAPIVATCDGPRTRIYCLFDEDAIDGDDANEEVLGFEPLKGDWGVSLPCPKEQLGWVQSALKKHSSRIIARDLSQGIATQAQADAGQALSLDLGGFLKS
B2: P. aeruginosa ATCC27853 HORMA2 (purified alone, crystallised) (natural protein, UniProt P0DTF6 1-166, looked up)
chain: MSTVATYSYTHSVTYVTDNILKSLKDIILLSGLDPEHFADRWESNTRAIKTWLGTGDLRKVILEIYNPATDKLVTRWDIDIVYGWSDGDGSFWTDTEQLKYAIKKAGLLPSQAKYKLMLDTKPGRPDVEGWSKGSYRSTDGMVKQSLGSTVEHSGLAGQAGYWRQR
B3: E. coli MS115-1 HORMA with N-terminal His6-tag (purified) (natural protein, UniProt D7Y2H3 1-172, looked up)
chain: MSSYSYTVAETQTFSVTHARHMAAKVATDLRRMQRFYGYPSDADIEAYEEELVVFLKAGYLGEVSYGFQKNNNWIEPTLRYTAGDLLGSGTDDDPGKIRPGKDVSGASFYSFMTYSSKYLNATQSEKDTALKDLPFKRVGAQSPGINGYLENDKTYSAGGRSLTRTSVRNFV
B4: E. coli MS115-1 Trip13 E159Q (purified) (enzyme)
chain: MNVKPSLDELFERRINFPDFEPQERLARLVGLDEHKDRLSKILGLLVNPYGIQEWAKKYHPDARAAVDTVLRRPPLVVLAGDVGSGKTELAETIGDAVARQEDIDITLYPLSLATRGQGRVGEMTQLVSAAFDYTIEAADKLKNTNGKARGAVLLLIDQADALAQSRENAQMHHEDRAGVNAFIRGIDRIANQKLPAAVLMCTNRLKALDPAVQRRAAEILTFSRPNDEQRHYLLHSKLTGLGLNSTAVEELVRLTGPRDPNSPGFTFSDITQRLIPSIILAAYPYNAVSVHSALQVVNKMTPTPAFIDRQ
B5: P. aeruginosa ATCC27853 HORMA2 (purified in complexes) (natural protein)
chain: B2 chain
B6: 40 bp dsDNA (5'-FAM Oligo #1/Oligo #2) (dsDNA)
DNA 1: CCTTTCGAAGACTCATCACGGAGAGCAGACATCATCTGGC
DNA 2: GCCAGATGATGTCTGCTCTCCGTGATGAGTCTTCGAAAGG

Tests used:
[1] = target: E. coli MS115-1 CdnC (purified, in complexes with HORMA) (E. coli MS115-1) (UniProt D7Y2H2); test: SEC
[2] = target: E. coli MS115-1 CdnC (purified, in complexes with HORMA) (E. coli MS115-1) (UniProt D7Y2H2); test: SEC; remark: listed apart in the source
Ec CdnC:HORMA:Trip13^EQ = target: T1, Ec CdnC:HORMA:Trip13^EQ (Escherichia coli, UniProt D7Y2H4, E159Q); test: crystal structure, […] Å; format: binding; conditions: four of six Trip13 subunits (A-D); 1 mM ATP, 5 mM MgCl2
T1 sequence (D7Y2H4 1-311 E159Q): B4 chain
T1 sequence (D7Y2H2 1-321 partner): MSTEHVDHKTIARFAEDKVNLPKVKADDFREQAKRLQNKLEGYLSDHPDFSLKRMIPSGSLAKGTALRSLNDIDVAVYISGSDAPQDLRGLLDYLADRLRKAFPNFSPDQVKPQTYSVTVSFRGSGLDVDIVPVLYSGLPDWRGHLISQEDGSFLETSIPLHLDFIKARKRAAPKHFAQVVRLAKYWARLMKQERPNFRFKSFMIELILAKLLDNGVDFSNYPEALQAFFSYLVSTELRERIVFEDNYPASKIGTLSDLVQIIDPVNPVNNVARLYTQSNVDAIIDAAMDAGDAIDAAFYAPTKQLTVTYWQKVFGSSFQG
T1 sequence (D7Y2H3 1-172 partner): B3 chain

Ec CdnC = target: T2, Ec CdnC (Escherichia coli, UniProt D7Y2H2); test: crystal structure, […] Å; format: binding; conditions: Mg2+; active site; ATP co-purified from E. coli
T2 sequence (D7Y2H2 1-321): T1 sequence (D7Y2H2 1-321 partner)

[3] = target: T3, Ec CdnC:HORMA-ΔN (crystal) (Escherichia coli, UniProt D7Y2H2); test: crystal structure; format: binding; conditions: active site; copies contain either no ligand or AMP; co-purified
T3 sequence (D7Y2H2 1-321): T1 sequence (D7Y2H2 1-321 partner)
T3 sequence (D7Y2H3 12-172 partner): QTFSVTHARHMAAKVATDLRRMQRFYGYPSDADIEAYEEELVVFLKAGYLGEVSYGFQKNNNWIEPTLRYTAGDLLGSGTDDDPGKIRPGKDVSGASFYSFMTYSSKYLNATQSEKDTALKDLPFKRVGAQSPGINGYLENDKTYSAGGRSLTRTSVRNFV

[4] = target: E. coli MS115-1 CdnC (purified, in complexes with HORMA) (E. coli MS115-1) (UniProt D7Y2H2); test: crystal structure
[5] = target: Rhizobiales sp. Trip13 (Rhizobiales sp.); test: crystal structure
[6] = target: B5; test: SEC-MALS
[7] = target: T4, P. aeruginosa ATCC27853 CdnD (purified) (P. aeruginosa ATCC27853, UniProt P0DTF7 1-300); test: SEC-MALS
T4 sequence: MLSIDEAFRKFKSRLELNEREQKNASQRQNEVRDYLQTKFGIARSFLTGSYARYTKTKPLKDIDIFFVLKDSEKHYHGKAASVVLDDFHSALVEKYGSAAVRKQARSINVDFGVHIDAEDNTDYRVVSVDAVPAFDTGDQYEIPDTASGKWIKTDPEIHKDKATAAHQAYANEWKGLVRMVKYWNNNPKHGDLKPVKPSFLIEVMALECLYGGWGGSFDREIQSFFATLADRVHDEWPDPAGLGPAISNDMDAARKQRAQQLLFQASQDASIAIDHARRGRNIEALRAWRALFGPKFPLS

crystal structure [8] = target: the molecule itself; test: crystal structure
[9] = target: B5; test: crystal structure
[10] = target: B4; test: crystal structure
[11] = target: T5, E. coli MS115-1 CdnC (purified, in complexes with HORMA) (E. coli MS115-1, UniProt D7Y2H2 1-321); test: SEC-MALS
T5 sequence (looked up): T1 sequence (D7Y2H2 1-321 partner)

crystal structure [12] = target: the molecule itself; test: crystal structure; remark: listed apart in the source
[13] = target: T6, Ec HORMA:CdnC complex (co-expressed, purified, 1:1) (E. coli MS115-1, UniProt D7Y2H2 1-321; D7Y2H3 1-172); test: SEC-MALS
T6 sequence (looked up) 1: T1 sequence (D7Y2H2 1-321 partner)
T6 sequence (looked up) 2: B3 chain

Pa CdnD = target: T7, Pa CdnD (Pseudomonas aeruginosa ATCC27853, UniProt P0DTF7 1-300); test: filter binding
T7 sequence: T4 sequence

Ec HORMA-ΔN with the His6-tag removed (from UniProt D7Y2H3 12-172) (domain or fragment)
stoichiometry N (HORMA-ΔN per CdnC) [1]: 1
stoichiometry N (HORMA-ΔN per CdnC) [2]: 1

Nc1ncnc2c1ncn2[C@@H]1O[C@H](COP(=O)(O)OP(=O)(O)OP(=O)(O)O)[C@@H](O)[C@H]1O [ATP]
crystal structure, 2.64 Å (Ec CdnC:HORMA:Trip13^EQ): with four subunits (monomers A-D) bound to ATP
crystal structure, 1.44 Å (Ec CdnC): the active site is occupied by one molecule of ATP that was co-purified

Nc1ncnc2c1ncn2[C@@H]1O[C@H](COP(=O)(O)O)[C@@H](O)[C@H]1O [AMP]
crystal structure [3]: contain either no ligand or AMP in the active site

Ec HORMA-ΔN with N-terminal His6-tag (from UniProt D7Y2H3 12-172) (domain or fragment)
stoichiometry N (HORMA-ΔN per CdnC (2:2 complex)) [4]: 1

Rhizobiales sp. Trip13 (enzyme)
stoichiometry N [5]: 6

B1
stoichiometry N [6]: 1 HORMA3 per HORMA2
stoichiometry N [7]: 1 HORMA3 per CdnD

B2
binding result (crystal structure [8]): binds

EVMEFNP [Peptide 1 (EVMEFNP), tag cleaved]
binding result [9]: binds

B3
binding result [10]: binds
stoichiometry N [11]: 1 HORMA per CdnC (1:1 complex) and 1 HORMA per CdnC (2:2 complex)

B4
stoichiometry N (crystal structure [12]): 6
stoichiometry N [13]: 6 Trip13^EQ per 1 CdnC:1 HORMA

B5
stoichiometry N [7]: 1 HORMA2 per CdnD

B6
binding result (Pa CdnD): no binding
